The target of this data set is T1, DdaA (A. baumannii), AbDdaA (Acinetobacter baumannii ATCC 17978, UniProt V5VBS3 1-335).
T1 sequence: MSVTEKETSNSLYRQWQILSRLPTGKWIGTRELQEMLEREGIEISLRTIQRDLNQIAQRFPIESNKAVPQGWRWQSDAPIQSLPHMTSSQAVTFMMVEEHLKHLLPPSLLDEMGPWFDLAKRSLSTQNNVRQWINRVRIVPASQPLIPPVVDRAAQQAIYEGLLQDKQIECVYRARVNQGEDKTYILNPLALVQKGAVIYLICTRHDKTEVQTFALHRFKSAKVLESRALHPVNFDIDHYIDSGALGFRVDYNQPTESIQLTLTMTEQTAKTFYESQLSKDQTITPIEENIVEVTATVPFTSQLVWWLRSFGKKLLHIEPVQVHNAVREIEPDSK
The data set can be described thus: EMSA. Background: In EMSA bound probe runs differently from free probe, usually more slowly.

This note sets out measurements from publication doi:10.1101/2024.11.11.622897.

B1: recA promoter motif WT (AR-DDRM) (dsDNA)
DNA 1: TTTCCGGTCTGGGCGACACAATATGACGTGTAATTTTAACC
DNA 2: GGTTAAAATTACACGTCATATTGTGTCGCCCAGACCGGAAA
Consider B1, for which the binding result is reported as “binds”.
